Measured values from PMC11676163, “Comparison of Two Chelator Scaffolds as Basis for Cholecystokinin-2 Receptor Targeting Bimodal Imaging Probes” (Pharmaceuticals, 2024).
Several values for one entry are separate records, joined by “and”; a condition that tells them apart may be missing. Identical values can stand only once.

Legend:
CCK2 receptor = molecular target: T1, CCK2 receptor (Homo sapiens, UniProt P32239); assay: Receptor-binding affinity, competition against [^177Lu]Lu-DOTA-MGS5 on A431-CCK2R cells; details: metal-free compounds, vs [^177Lu]Lu-DOTA-MGS5, 1 h RT
T1 construct: expressed in transfected cells; host or cells: A431 human squamous carcinoma cells (A431-CCK2R), provided by Dr. Luigi Aloj
T1 sequence (P32239 1-447): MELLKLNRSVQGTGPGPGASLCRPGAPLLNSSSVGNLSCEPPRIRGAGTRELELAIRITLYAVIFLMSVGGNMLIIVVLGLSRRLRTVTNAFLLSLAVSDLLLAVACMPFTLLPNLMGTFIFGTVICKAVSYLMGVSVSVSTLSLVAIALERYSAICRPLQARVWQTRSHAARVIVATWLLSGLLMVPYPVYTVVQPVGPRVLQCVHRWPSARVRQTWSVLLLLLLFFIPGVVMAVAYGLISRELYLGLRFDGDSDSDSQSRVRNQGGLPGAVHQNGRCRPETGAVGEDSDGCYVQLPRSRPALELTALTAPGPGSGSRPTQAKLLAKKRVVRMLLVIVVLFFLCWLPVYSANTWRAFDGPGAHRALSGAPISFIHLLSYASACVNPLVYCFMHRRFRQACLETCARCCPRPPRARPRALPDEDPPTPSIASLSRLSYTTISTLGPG
Description: A total of 5 µg of DOTA-MGS5 were radiolabelled with 20 µL of [^177Lu]LuCl3 solution (300–400 MBq; 90–95 GBq/µmol) and 30 µL of 0.4 M sodium acetate/0.24 M gentisic acid solution with pH 5. The labelling mixture was heated at 90 °C for 20 min. At the end, the solution was diluted to a concentration of 200 nM and stored in a freezer for further use. Binding assays were carried out in 96-well filter plates (Multi-ScreenHTS-FB, Merck Group, Darmstadt, Germany) pretreated with 10 mM TRIS/139 mM NaCl buffer at pH 7.4 (TRIS-buffer) (2 × 250 μL) before 400,000 A431-CCK2R cells per well were added in 20 mM HEPES buffer at pH 7.4 containing 10 mM MgCl2, 14 μM bacitracin, and 0.5% (w/v) bovine serum albumin (BSA) (binding assay buffer). Competition assays were performed two times in triplicate using increasing concentrations of competitors (0.001–1,000 nM) and a constant amount of radioligands (~30,000 cpm, 0.3 nM). After 1 h of incubation at room temperature (RT), the medium was removed by vacuum filtration and the filters were rapidly rinsed with ice-cold binding assay buffer (2 × 200 μL), removed, and counted in the γ-counter. Half-maximal inhibitory concentration (IC50) values were calculated following non-linear regression with Origin software (MicroCal Origin 6.1, Northampton, MA, USA).

[1] = Distribution coefficient (LogD pH7.4), octan-1-ol/PBS; assay type: physicochemical; details: octan-1-ol/PBS pH 7.4, n = 6
Description: For lipophilicity determination, [^68Ga]Ga-CyTMG and [^68Ga]Ga-CyFMG labelling solutions were diluted with phosphate-buffered saline (PBS, pH7.4) to a concentration of 0.1 µM. A total of 300 µL of this solution was added to an Eppendorf tube containing 300 µL of octan-1-ol. The mixture was shaken at 1400 rpm and at RT for 15 min and centrifuged at 4500× g rpm for 2 min for phase separation. Afterwards, 100 µL of the organic phase and of the aqueous phase were taken out and the activities of the aliquots were quantified in a γ-counter (n = 6). The LogD values were calculated with the following formula:(1) LogDpH7.4=log10  CPMoctanol phase/CPM PBS phase

physchem = assay type: physicochemical; details: buffer or solvent, pH 7.4
Description: For stability and protein binding studies, the labelling solutions were diluted with PBS or human serum to a concentration of 0.5 µM and incubated at 37 °C for 1 h, 2 h, and 4 h (n = 3). In the case of serum stability for each timepoint, 100 uL of the incubated solution was diluted 1:1 with ACN to make the proteins precipitate and the solution was centrifuged for 2 min at 14,000× g rpm. A total of 100 uL of the supernatant was then diluted 1:1 with water and analyzed by radio-HPLC. For stability in PBS, 100 uL of the incubated solution was diluted 1:1 with water and analyzed by radio-HPLC for every timepoint.

in vivo [2] = details: BALB/c, mouse, total radioactivity
Description: For the ex vivo biodistribution study on healthy BALB/c mice, 3 animals per group were injected with 0.14 nmol of radiotracer (1.5 MBq) and then sacrificed after 1, 2, and 4 h. The organs of interest were extracted, weighed, and measured in the γ-counter. Results were expressed as percentages of injected dose per gram tissue (% ID/g).

[3] = system: A431-CCK2R / A431-mock xenografts; assay type: in vivo, mouse; details: for Time after injection from which cancerous tissue could be well delineated by fluorescence imaging: A431-CCK2R xenografts, 0.3 nmol; for Persistence of fluorescence signal in the kidneys: mouse, in vivo
Description: (§1) For the induction of tumour xenografts, 2 × 10^6 of A431-CCK2R or A431-mock cells in 200 μL appropriate medium and Matrigel (1:1) were subcutaneously injected in the right and left flank of each mouse (athymic BALB/c nude), respectively. The tumours were allowed to grow until they had reached a volume of 0.3 to 0.6 cm^3. To evaluate ex vivo biodistribution on tumour models, 3 mouse xenografts were injected with 0.05 nmol of radiotracer (1 MBq) and then sacrificed after 2 h. For the comparative imaging study (PET/CT and in vivo fluorescence imaging), 2 xenograft-bearing mice were injected with 0.3 nmol (6 MBq) of radiotracer. Static PET/CT images of the anesthetized animals in prone position were acquired with a Mediso NanoScan PET/CT small-animal imaging system (Mediso Medical Imaging Systems, Budapest, Hungary) at 1, 2, and 3 h p.i. Image reconstruction was performed via Mediso Tera-Tomo 3D PET iterative reconstruction (Mediso Medical Imaging Systems, Budapest, Hungary). The images were visualized, processed, and quantified in Mediso InterView FUSION (Mediso Medical Imaging Systems, Budapest, Hungary). Quantitative analyses were performed on images of 3 mouse xenografts per compound. The images were normalized to injected activity and animal weight. The results were expressed as percentages of injected dose per gram tissue (% ID/g).
Near-infrared in vivo fluorescence imaging was conducted with an in vivo MS FX PRO small-animal imaging system (Bruker Biospin Corporation, Woodbridge, CT, USA) and image analysis was performed with Bruker MI SE software v. 7.1.1.20220 (Bruker Biospin Corporation, Woodbridge, CT, USA). The mice were positioned in the system in supine position and scanned at various time intervals up to 72 h p.i. by using an appropriate filter set (excitation = 650 nm and emission = 700 nm) and identical illumination settings (acquisition time = 30 s, f-stop = 2.8, field of view = 100 mm, and binning = 4 × 4). The fluorescence emission was reported as photons/s/mm^2.

A431-CCK2R cells = assay: Cell uptake studies on A431-CCK2R cells; assay type: cell-based, human; details: 0.5 nM, 1 h, 37 °C
Description: (§2) The human squamous carcinoma cell line A431 transfected with human CCK2R (A431-CCK2R) and with the empty vector alone (A431-mock) were originally provided by Dr. Luigi Aloj (Nuclear Medicine Unit, Istituto Nazionale per lo Studio e la Cura dei Tumori “Fondazione Giovanni Pascale”-IRCCS, Naples, Italy). All cell culture media and reagents were purchased from Gibco, Invitrogen (Thermo Fisher Scientific, Vienna, Austria), or Sigma-Aldrich (Darmstadt, Germany) Corporation. Dulbecco's Modified Eagle's medium (DMEM) supplemented with 10% (v/v) fetal bovine serum, FBS (10270, Invitrogen, Thermo Fisher Scientific, Waltham, MA, USA), and 1% (v/v) penicillin-streptomycin-glutamine, PSG (10378, Gibco, Thermo Fisher Scientific, Waltham, MA, USA), was used for cell culture. The cells were grown at 37 °C in a humidified atmosphere with 5% carbon dioxide and were passaged 3 times per week using a 2.5% trypsin-EDTA solution. The cell internalization of the radiolabelled compounds was measured on A431-CCK2R and A431-mock cells. A total of 1.0 × 10^6 cells per well were seeded in 6-well culture plates (Greiner Cellstar, Sigma-Aldrich […] GmbH, Vienna, Austria) and grown for 48 h. On the day of the experiment, each well was washed twice with internalization medium (culturing medium supplemented with 1% (v/v) FBS) and then incubated with 0.5 nM of a radioactive compound for 1 h at 37 °C. After the incubation, the medium was removed and the cells rinsed with 2 × 1 mL of PBS/0.5% (w/v) bovine serum albumin (BSA). Thereafter, they were washed twice with 1 mL of 50 mM glycine buffer (pH 2.8) with 0.1 M NaCl to remove the membrane-bound radiocompound. Finally, the cells were lysed with 2 × 1 mL of 1 M NaOH to determine the internalized radioligand. All fractions were measured in the γ-counter and the percentage of internalized and membrane-bound radiocompounds in relation to the total radioactivity added to the cells was reported.

[4] = system: A431-CCK2R / A431-mock xenografts; assay: in vivo; details: mouse
Description: as §1

in vivo [5] = details: athymic BALB/c nude, mouse, total radioactivity
Description: as §1

A431-mock cells = assay: Cell uptake studies on A431-mock cells; assay type: cell-based, human; details: 0.5 nM, 1 h, 37 °C
Description: as §2

[6] = Accumulation of radioactivity in A431-CCK2R xenografts
[7] = Accumulation of radioactivity in A431-mock tumours

IC50 (CCK2 receptor)	SMILES	LogDpH7.4 ± SD [1]	remaining at 1 h, 0.5 µM (physchem)	remaining at 2 h, 0.5 µM (physchem)	remaining at 4 h, 0.5 µM (physchem)	tissue uptake at 1 h (in vivo [2])	tissue uptake at 2 h (in vivo [2])	tissue uptake at 4 h (in vivo [2])	Time after injection from which cancerous tissue could be well delineated by fluorescence imaging [3]	Persistence of fluorescence signal in the kidneys [3]	Internalized fraction, % of total activity (A431-CCK2R cells)	Membrane bound, % of total activity (A431-CCK2R cells)	Ratio of CCK2R-positive tumours and A431-mock xenografts [4]	tissue uptake at 2 h (in vivo [5]; 0.05 nmol, Kidney uptake)	tissue uptake at 2 h (in vivo [5]; [6])	tissue uptake at 2 h (in vivo [5]; [7])	Internalized fraction, % of total activity (A431-mock cells)	Membrane bound, % of total activity (A431-mock cells)
0.24 ± 0.16 nM	CCCC[C@@H](C(=O)N[C@@H](CC(=O)O)C(=O)N[C@@H](Cc1cccc2ccccc12)C(N)=O)N(C)C(=O)[C@H](Cc1c[nH]c2ccccc12)NC(=O)CCOCCOCCOCCOCCn1cc(CNC(=O)CCP(=O)(O)CN2CCN(CP(=O)(O)CCC(=O)NCc3cn(CCCNC(=O)CCCCC[N+]4=C(C=CC=CC=C5N(C)c6ccc7c(S(=O)(=O)O)cc(S(=O)(=O)O)cc7c6C5(C)C)C(C)(C)c5c4ccc4c(S(=O)(=O)O)cc(S(=O)(=O)O)cc54)nn3)CCN(CP(=O)(O)CCC(=O)NCc3cn(CCOCCOCCOCCOCCC(=O)N[C@@H](Cc4c[nH]c5ccccc45)C(=O)N(C)[C@@H](CCCC)C(=O)N[C@@H](CC(=O)O)C(=O)N[C@@H](Cc4cccc5ccccc45)C(N)=O)nn3)CC2)nn1 (single isomer, unassigned) [CyTMG]	–	–	–	–	–	–	–	–	–	–	–	–	–	–	–	–	–
–	CCCC[C@@H](C(=O)N[C@@H](CC(=O)O)C(=O)N[C@@H](Cc1cccc2ccccc12)C(N)=O)N(C)C(=O)[C@H](Cc1c[nH]c2ccccc12)NC(=O)CCOCCOCCOCCOCCn1cc(CNC(=O)CCP(=O)(O)CN2CCN(CP(=O)(O)CCC(=O)NCc3cn(CCCNC(=O)CCCCC[N+]4=C(C=CC=CC=C5N(C)c6ccc7c(S(=O)(=O)O)cc(S(=O)(=O)O)cc7c6C5(C)C)C(C)(C)c5c4ccc4c(S(=O)(=O)O)cc(S(=O)(=O)O)cc54)nn3)CCN(CP(=O)(O)CCC(=O)NCc3cn(CCOCCOCCOCCOCCC(=O)N[C@@H](Cc4c[nH]c5ccccc45)C(=O)N(C)[C@@H](CCCC)C(=O)N[C@@H](CC(=O)O)C(=O)N[C@@H](Cc4cccc5ccccc45)C(N)=O)nn3)CC2)nn1 (single isomer, unassigned) [[^68Ga]Ga-CyTMG, metal not drawn]	−1.78 ± 0.16	97.98 ± 0.2%	97.56 ± 0.09%	96.7 ± 1.15%	75.8 ± 3.88 %ID/g	124 ± 6.46 %ID/g	173 ± 13 %ID/g	≥ 1 h	up to 72 h	10.59 ± 0.40% and 10.6%	0.8%	2.63	119 ± 9.12 %ID/g	6.47 ± 1.47 %ID/g	2.46 ± 0.4 %ID/g	0.2%	0.5%
–	CCCC[C@@H](C(=O)N[C@@H](CC(=O)O)C(=O)N[C@@H](Cc1cccc2ccccc12)C(N)=O)N(C)C(=O)[C@H](Cc1c[nH]c2ccccc12)NC(=O)CCOCCOCCOCCOCCn1cc(CCC(=O)N[C@H]2CCCN(O)C(=O)/C=C(/C)CCOC(=O)[C@@H](NC(=O)CCc3cn(CCOCCOCCOCCOCCC(=O)N[C@@H](Cc4c[nH]c5ccccc45)C(=O)N(C)[C@@H](CCCC)C(=O)N[C@@H](CC(=O)O)C(=O)N[C@@H](Cc4cccc5ccccc45)C(N)=O)nn3)CCCN(O)C(=O)/C=C(/C)CCOC(=O)[C@@H](NC(=O)CCc3cn(CCCNC(=O)CCCCC[N+]4=C(/C=C/C=C/C=C5/N(C)c6ccc7c(S(=O)(=O)O)cc(S(=O)(=O)[O-])cc7c6C5(C)C)C(C)(C)c5c4ccc4c(S(=O)(=O)O)cc(S(=O)(=O)O)cc54)nn3)CCCN(O)C(=O)/C=C(/C)CCOC2=O)nn1 [[^68Ga]Ga-CyFMG, metal not drawn]	−1.53 ± 0.10	99.1 ± 1.07%	98.57 ± 0.47%	99.3 ± 0.71%	45.9 ± 3.03 %ID/g	59.3 ± 5.04 %ID/g	74.3 ± 11.7 %ID/g	≥ 3 h	visibly declined from 24 h to disappear completely at 72 h after injection	24.48 ± 1.33% and 24.5%	0.9%	3.94	50.7 ± 8.42 %ID/g	4.02 ± 1.64 %ID/g	1.02 ± 0.13 %ID/g	1.3%	0.7%
